Laboratory results reported in article PMC7141810, “UBP12 and UBP13 negatively regulate the activity of the ubiquitin-dependent peptidases DA1, DAR1 and DAR2” (eLife, 2020).

T1: GST-UBP13 (Arabidopsis thaliana, UniProt Q84WU2 1-1115)
T1 construct: UBP13, Arabidopsis thaliana, AT3G11910; called full-length; also called full-length GST-UBP13; source: E. coli BL21 (DE3), purified (Glutathione Sepharose 4B beads)
T1 sequence (looked up): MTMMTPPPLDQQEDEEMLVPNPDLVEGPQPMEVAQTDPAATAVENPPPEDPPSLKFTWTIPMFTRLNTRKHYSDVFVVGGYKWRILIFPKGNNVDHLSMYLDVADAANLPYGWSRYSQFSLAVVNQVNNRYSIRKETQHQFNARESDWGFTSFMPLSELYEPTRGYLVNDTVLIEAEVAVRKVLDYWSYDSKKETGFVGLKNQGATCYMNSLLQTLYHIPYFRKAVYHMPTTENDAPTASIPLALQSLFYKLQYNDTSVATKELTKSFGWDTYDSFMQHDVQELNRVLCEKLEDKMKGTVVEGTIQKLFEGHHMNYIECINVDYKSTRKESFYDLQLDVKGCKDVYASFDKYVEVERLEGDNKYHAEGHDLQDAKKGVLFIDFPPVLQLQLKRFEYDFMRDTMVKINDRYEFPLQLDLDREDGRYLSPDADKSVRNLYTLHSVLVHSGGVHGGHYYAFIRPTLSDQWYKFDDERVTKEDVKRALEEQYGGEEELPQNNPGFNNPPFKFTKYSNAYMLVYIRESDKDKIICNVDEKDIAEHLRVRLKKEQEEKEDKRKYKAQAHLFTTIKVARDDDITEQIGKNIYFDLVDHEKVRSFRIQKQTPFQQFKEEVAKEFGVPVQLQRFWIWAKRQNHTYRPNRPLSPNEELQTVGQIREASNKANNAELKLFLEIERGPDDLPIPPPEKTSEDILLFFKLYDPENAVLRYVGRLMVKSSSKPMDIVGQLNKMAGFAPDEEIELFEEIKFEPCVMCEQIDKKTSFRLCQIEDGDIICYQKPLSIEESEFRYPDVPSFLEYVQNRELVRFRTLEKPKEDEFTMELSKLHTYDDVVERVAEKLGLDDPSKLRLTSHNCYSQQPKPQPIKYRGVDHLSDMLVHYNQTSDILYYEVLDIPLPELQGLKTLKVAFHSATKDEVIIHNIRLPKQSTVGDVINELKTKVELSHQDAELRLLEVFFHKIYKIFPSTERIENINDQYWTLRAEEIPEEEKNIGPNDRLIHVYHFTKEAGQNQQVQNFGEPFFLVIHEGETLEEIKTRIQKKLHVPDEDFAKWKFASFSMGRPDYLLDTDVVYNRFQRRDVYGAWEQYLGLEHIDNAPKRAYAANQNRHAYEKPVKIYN

T2: GST-UBP12 (Arabidopsis thaliana, UniProt Q9FPT1 1-1116)
T2 construct: UBP12, Arabidopsis thaliana, AT5G06600; called full-length; also called full-length GST-UBP12; source: E. coli BL21 (DE3), purified (Glutathione Sepharose 4B beads)
T2 sequence (looked up): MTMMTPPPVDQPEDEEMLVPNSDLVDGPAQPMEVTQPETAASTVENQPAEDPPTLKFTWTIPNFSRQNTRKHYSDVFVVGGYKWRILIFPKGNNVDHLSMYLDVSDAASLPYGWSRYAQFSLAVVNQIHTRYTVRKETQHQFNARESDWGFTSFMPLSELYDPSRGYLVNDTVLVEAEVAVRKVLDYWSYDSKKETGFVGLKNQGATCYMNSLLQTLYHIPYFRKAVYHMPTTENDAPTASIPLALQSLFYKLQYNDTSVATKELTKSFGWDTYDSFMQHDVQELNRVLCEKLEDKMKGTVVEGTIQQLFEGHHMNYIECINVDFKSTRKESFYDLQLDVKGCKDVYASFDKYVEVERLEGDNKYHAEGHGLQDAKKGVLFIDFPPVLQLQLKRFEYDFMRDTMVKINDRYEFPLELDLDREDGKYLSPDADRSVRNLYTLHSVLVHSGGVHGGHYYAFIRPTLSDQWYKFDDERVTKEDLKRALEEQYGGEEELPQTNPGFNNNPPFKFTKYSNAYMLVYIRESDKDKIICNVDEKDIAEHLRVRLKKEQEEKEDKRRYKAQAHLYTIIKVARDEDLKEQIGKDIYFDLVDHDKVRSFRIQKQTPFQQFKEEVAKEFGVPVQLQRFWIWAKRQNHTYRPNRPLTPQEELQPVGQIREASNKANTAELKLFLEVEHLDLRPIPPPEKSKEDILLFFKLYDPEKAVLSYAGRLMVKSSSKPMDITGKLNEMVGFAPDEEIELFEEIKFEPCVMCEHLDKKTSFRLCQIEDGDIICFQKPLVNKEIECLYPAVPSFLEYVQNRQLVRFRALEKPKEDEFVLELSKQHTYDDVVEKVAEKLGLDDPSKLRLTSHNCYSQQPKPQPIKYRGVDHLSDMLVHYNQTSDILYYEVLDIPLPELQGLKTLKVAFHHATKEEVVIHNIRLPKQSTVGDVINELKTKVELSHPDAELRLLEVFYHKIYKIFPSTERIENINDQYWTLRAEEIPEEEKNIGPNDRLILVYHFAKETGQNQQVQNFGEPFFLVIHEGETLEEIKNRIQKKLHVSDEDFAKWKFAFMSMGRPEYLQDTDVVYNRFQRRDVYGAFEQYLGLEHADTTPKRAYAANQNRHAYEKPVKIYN


What was measured:
GST-UBP13 = biological target: T1, GST-UBP13; experiment: pull-down; in vitro; equal amounts of free GST, GST-UBP12 or GST-UBP13 as baits incubated with HIS-MBP-DA1, -DAR1 or -DAR2; purification with anti-GST beads; Western blot; conditions: both partners purified
GST-UBP12 = biological target: T2, GST-UBP12; experiment: as above; conditions: both partners purified

Binder	binding result (GST-UBP13)	binding result (GST-UBP12)
HIS-MBP-DAR1 (natural protein, Arabidopsis thaliana, UniProt Q8W4F0 1-553, looked up, DAR1, Arabidopsis thaliana, AT4G36860; source: E. coli BL21 (DE3), purified (NI-NTA agarose beads)) MGWLTKILKGSSHKFSDGQCNGRYREDRNLEGPRYSAEGSDFDKEEIECAIALSLSEQEHVIPQDDKGKKIIEYKSETEEDDDDDEDEDEEYMRAQLEAAEEEERRVAQAQIEEEEKRRAEAQLEETEKLLAKARLEEEEMRRSKAQLEEDELLAKALQESMNVGSPPRYDPGNILQPYPFLIPSSHRICVGCQAEIGHGRFLSCMGGVWHPECFCCNACDKPIIDYEFSMSGNRPYHKLCYKEQHHPKCDVCHNFIPTNPAGLIEYRAHPFWMQKYCPSHERDGTPRCCSCERMEPKDTKYLILDDGRKLCLECLDSAIMDTHECQPLYLEIREFYEGLHMKVEQQIPMLLVERSALNEAMEGEKHGHHHLPETRGLCLSEEQTVTTVLRRPRIGAGYKLIDMITEPCRLIRRCEVTAILILYGLPRLLTGSILAHEMMHAWLRLNGYPNLRPEVEEGICQVLAHMWLESETYAGSTLVDIASSSSSAVVSASSKKGERSDFEKKLGEFFKHQIESDSSSAYGDGFRQGNQAVLKHGLRRTLDHIRLTGTFP	binds	binds
HIS-MBP-DAR2 (natural protein, Arabidopsis thaliana, UniProt Q0WSN2 1-528, looked up, DAR2, Arabidopsis thaliana, AT2G39830; source: E. coli BL21 (DE3), purified (NI-NTA agarose beads)) MDSSSSSSSSSPSSSYGVARVSHISNPCIFGEVGSSSSSTYRDKKWKLMKWVSKLFKSGSNGGGSGAHTNHHPPQFQEDENMVFPLPPSSLDDRSRGARDKEELDRSISLSLADNTKRPHGYGWSMDNNRDFPRPFHGGLNPSSFIPPYEPSYQYRRRQRICGGCNSDIGSGNYLGCMGTFFHPECFRCHSCGYAITEHEFSLSGTKPYHKLCFKELTHPKCEVCHHFIPTNDAGLIEYRCHPFWNQKYCPSHEYDKTARCCSCERLESWDVRYYTLEDGRSLCLECMETAITDTGECQPLYHAIRDYYEGMYMKLDQQIPMLLVQREALNDAIVGEKNGYHHMPETRGLCLSEEQTVTSVLRRPRLGAHRLVGMRTQPQRLTRKCEVTAILVLYGLPRLLTGAILAHELMHGWLRLNGFRNLNPEVEEGICQVLSYMWLESEVLSDPSTRNLPSTSSVATSSSSSFSNKKGGKSNVEKKLGEFFKHQIAHDASPAYGGGFRAANAAACKYGLRRTLDHIRLTGTFPL	binds	binds
HIS-MBP-DA1 (natural protein, Arabidopsis thaliana, UniProt P0C7Q8 1-532, looked up, DA1, Arabidopsis thaliana, AT1G19270; source: E. coli BL21 (DE3), purified (NI-NTA agarose beads)) MGWFNKIFKGSNQRLRVGNNKHNHNVYYDNYPTASHDDEPSAADTDADNDEPHHTQEPSTSEDNTSNDQENEDIDRAIALSLLEENQEQTSISGKYSMPVDEDEQLARALQESMVVGNSPRHKSGSTYDNGNAYGAGDLYGNGHMYGGGNVYANGDIYYPRPITFQMDFRICAGCNMEIGHGRFLNCLNSLWHPECFRCYGCSQPISEYEFSTSGNYPFHKACYRERYHPKCDVCSHFIPTNHAGLIEYRAHPFWVQKYCPSHEHDATPRCCSCERMEPRNTRYVELNDGRKLCLECLDSAVMDTMQCQPLYLQIQNFYEGLNMKVEQEVPLLLVERQALNEAREGEKNGHYHMPETRGLCLSEEQTVSTVRKRSKHGTGKWAGNITEPYKLTRQCEVTAILILFGLPRLLTGSILAHEMMHAWMRLKGFRTLSQDVEEGICQVMAHKWLDAELAAGSTNSNAASSSSSSQGLKKGPRSQYERKLGEFFKHQIESDASPVYGDGFRAGRLAVHKYGLRKTLEHIQMTGRFPV	binds	binds
